For orientation: Kd means the free concentration of one partner at which half of the binding sites on the other are occupied at equilibrium, for simple one-to-one binding.

From US20040006018A1 (Genentech, published 2004) come the findings set out here.

Assay [1] has as its target T1, Mouse LIF (leukemia inhibitory factor) (mouse, UniProt P09056 24-203). The experiment in a line: binding of LIF to His-tagged soluble LIF receptor on Ni-NTA agarose.
For assay [2], the target named is T1, Mouse LIF (leukemia inhibitory factor). The experiment in a line: Scatchard analysis of binding to M1 cells, summary over both labeled ligands.
The target is the same in assay [3]. The experiment in a line: 0.047 nM 125I-mouse CT-1 on M1 cells competed by unlabeled LIF, Scatchard, one-site fit.
Source text: (§1) Shown are competition and Scatchard (insert) plots of the data.
For assay [4] the target is unchanged. Put plainly: 0.042 nM 125I-mouse LIF on M1 cells competed by unlabeled LIF, Scatchard, one-site fit.
Source text: as §1
For assay [5] the target is unchanged. The experiment in a line: competition for 125I-human LIF binding to Hela cells.

B1: Soluble mouse LIF receptor (extracellular domain, amino acids 1-826, with a C-terminal tag of 6 histidine residues) (receptor)
chain: LKRGVQDLKCTTNNMRVWDCTWPAPLGVSPGTVKDICIKDRFHSCHPLETTNVKIPALSPGDHEVTINYLNGFQSKFTLNEKDVSLIPETPEILDLSADFFTSSLLLKWNDRGSALPHPSNATWEIKVLQNPRTEPVALVLLNTMLSGKDTVQHWNWTSDLPLQCATHSVSIRWHIDSPHFSGYKEWSDWSPLKNISWIRNTETNVFPQDKVVLAGSNMTICCMSPTKVLSGQIGNTLRPLIHLYGQTVAIHILNIPVSENSGTNIIFITDDDVYGTVVFAGYPPDVPQKLSCETHDLKEIICSWNPGRITGLVGPRNTEYTLFESISGKSAVFHRIEGLTNETYRLGVQMHPGQEIHNFTLTGRNPLGQAQSAVVINVTERVAPHDPTSLKVKDINSTVVTFSWYLPGNFTKINLLCQIEICKANSKKEVRNATIRGAEDSTYHVAVDKLNPYTAYTFRVRCSSKTFWKWSRWSDEKRHLTTEATPSKGPDTWREWSSDGKNLIVYWKPLPINEANGKILSYNVSCSLNEETQSVLEIFDPQHRAEIQLSKNDYIISVVARNSAGSSPPSKIASMEIPNDDITVEQAVGLGNRIFLTWRHDPNMTCDYVIKWCNSSRSEPCLLDWRKVPSNSTETVIESDQFQPGVRYNFYLYGCTNQGYQLLRSIIGYVEELAPIVAPNFTVEDTSADSILVKWDDIPVEELRGFLRGYLFYFQKGERDTPKTRSLEPHHSDIKLKNITDISQKTLRIADLQGKTSYHLVLRAYTHGGLGPEKSMFVVTKEHHHHHH
notes: range 44-826; Expressed in human 293 cells, purified on Ni-NTA agarose; single band of 120 kDa; also called smLIFR; soluble LIF receptor
B1 registered a Kd in assay [1] of 1.5 nM.

B2: Mouse LIF receptor on mouse M1 cells (LIF receptor complex with gp130) (receptor)
chain 1: LKRGVQDLKCTTNNMRVWDCTWPAPLGVSPGTVKDICIKDRFHSCHPLETTNVKIPALSPGDHEVTINYLNGFQSKFTLNEKDVSLIPETPEILDLSADFFTSSLLLKWNDRGSALPHPSNATWEIKVLQNPRTEPVALVLLNTMLSGKDTVQHWNWTSDLPLQCATHSVSIRWHIDSPHFSGYKEWSDWSPLKNISWIRNTETNVFPQDKVVLAGSNMTICCMSPTKVLSGQIGNTLRPLIHLYGQTVAIHILNIPVSENSGTNIIFITDDDVYGTVVFAGYPPDVPQKLSCETHDLKEIICSWNPGRITGLVGPRNTEYTLFESISGKSAVFHRIEGLTNETYRLGVQMHPGQEIHNFTLTGRNPLGQAQSAVVINVTERVAPHDPTSLKVKDINSTVVTFSWYLPGNFTKINLLCQIEICKANSKKEVRNATIRGAEDSTYHVAVDKLNPYTAYTFRVRCSSKTFWKWSRWSDEKRHLTTEATPSKGPDTWREWSSDGKNLIVYWKPLPINEANGKILSYNVSCSLNEETQSVLEIFDPQHRAEIQLSKNDYIISVVARNSAGSSPPSKIASMEIPNDDITVEQAVGLGNRIFLTWRHDPNMTCDYVIKWCNSSRSEPCLLDWRKVPSNSTETVIESDQFQPGVRYNFYLYGCTNQGYQLLRSIIGYVEELAPIVAPNFTVEDTSADSILVKWDDIPVEELRGFLRGYLFYFQKGERDTPKTRSLEPHHSDIKLKNITDISQKTLRIADLQGKTSYHLVLRAYTHGGLGPEKSMFVVTKENSVGLIIAILIPVAVAVIVGVVTSILCYRKREWIKETFYPDIPNPENCKALQFQKSVCEGSNALKTLEMNPCTPNNVEVLESRSIVPKIEDTEIISPVAERPGERSEVDPENHVVVSYCPPIIEEEITNPAADEVGGASQVVYIDVQSMYQPQAKAEEEQDVDPVVVAGYKPQMRLPISPAVEDTAAEDEEGKTAGYRPQANVNTWNLVSPDSPRSTDSNNEVVSFGSPCSINSRQFLIPPKDEDSPKSNGGGWSFTNFFQNKPND
chain 2: QLLEPCGYIYPEFPVVQRGSNFTAICVLKEACLQHYYVNASYIVWKTNHAAVPREQVTVINRTTSSVTFTDVVLPSVQLTCNILSFGQIEQNVYGVTMLSGFPPDKPTNLTCIVNEGKNMLCQWDPGRETYLETNYTLKSEWATEKFPDCQSKHGTSCMVSYMPTYYVNIEVWVEAENALGKVSSESINFDPVDKVKPTPPYNLSVTNSEELSSILKLSWVSSGLGGLLDLKSDIQYRTKDASTWIQVPLEDTMSPRTSFTVQDLKPFTEYVFRIRSIKDSGKGYWSDWSEEASGTTYEDRPSRPPSFWYKTNPSHGQEYRSVRLIWKALPLSEANGKILDYEVILTQSKSVSQTYTVTGTELTVNLTNDRYVASLAARNKVGKSAAAVLTIPSPHVTAAYSVVNLKAFPKDNLLWVEWTPPPKPVSKYILEWCVLSENAPCVEDWQQEDATVNRTHLRGRLLESKCYQITVTPVFATGPGGSESLKAYLKQAAPARGPTVRTKKVGKNEAVLAWDQIPVDDQNGFIRNYSISYRTSVGKEMVVHVDSSHTEYTLSSLSSDTLYMVRMAAYTDEGGKDGPEFTFTTPKFAQGEIEAIVVPVCLAFLLTTLLGVLFCFNKRDLIKKHIWPNVPDPSKSHIAQWSPHTPPRHNFNSKDQMYSDGNFTDVSVVEIEANNKKPCPDDLKSVDLFKKEKVSTEGHSSGIGGSSCMSSSRPSISSNEENESAQSTASTVQYSTVVHSGYRHQVPSVQVFSRSESTQPLLDSEERPEDLQLVDSVDGGDEILPRQPYFKQNCSQPEACPEISHFERSNQVLSGNEEDFVRLKQQQVSDHISQPYGSEQRRLFQEGSTADALGTGADGQMERFESVGMETTIDEEIPKSYLPQTVRQGGYMPQ
notes: whole, on cells; Endogenous receptor on M1 cells; also called LIFRβ
On to B2, for which the values for the Kd in assay [2], in assay [3] and in assay [4] were ~0.2 nM, 0.19 nM and 0.26 nM, respectively.

B3: Human LIF receptor on human Hela cells (receptor)
chain: QKKGAPHDLKCVTNNLQVWNCSWKAPSGTGRGTDYEVCIENRSRSCYQLEKTSIKIPALSHGDYEITINSLHDFGSSTSKFTLNEQNVSLIPDTPEILNLSADFSTSTLYLKWNDRGSVFPHRSNVIWEIKVLRKESMELVKLVTHNTTLNGKDTLHHWSWASDMPLECAIHFVEIRCYIDNLHFSGLEEWSDWSPVKNISWIPDSQTKVFPQDKVILVGSDITFCCVSQEKVLSALIGHTNCPLIHLDGENVAIKIRNISVSASSGTNVVFTTEDNIFGTVIFAGYPPDTPQQLNCETHDLKEIICSWNPGRVTALVGPRATSYTLVESFSGKYVRLKRAEAPTNESYQLLFQMLPNQEIYNFTLNAHNPLGRSQSTILVNITEKVYPHTPTSFKVKDINSTAVKLSWHLPGNFAKINFLCEIEIKKSNSVQEQRNVTIKGVENSSYLVALDKLNPYTLYTFRIRCSTETFWKWSKWSNKKQHLTTEASPSKGPDTWREWSSDGKNLIIYWKPLPINEANGKILSYNVSCSSDEETQSLSEIPDPQHKAEIRLDKNDYIISVVAKNSVGSSPPSKIASMEIPNDDLKIEQVVGMGKGILLTWHYDPNMTCDYVIKWCNSSRSEPCLMDWRKVPSNSTETVIESDEFRPGIRYNFFLYGCRNQGYQLLRSMIGYIEELAPIVAPNFTVEDTSADSILVKWEDIPVEELRGFLRGYLFYFGKGERDTSKMRVLESGRSDIKVKNITDISQKTLRIADLQGKTSYHLVLRAYTDGGVGPEKSMYVVTKENSVGLIIAILIPVAVAVIVGVVTSILCYRKREWIKETFYPDIPNPENCKALQFQKSVCEGSSALKTLEMNPCTPNNVEVLETRSAFPKIEDTEIISPVAERPEDRSDAEPENHVVVSYCPPIIEEEIPNPAADEAGGTAQVIYIDVQSMYQPQAKPEEEQENDPVGGAGYKPQMHLPINSTVEDIAAEEDLDKTAGYRPQANVNTWNLVSPDSPRSIDSNSEIVSFGSPCSINSRQFLIPPKDEDSPKSNGGGWSFTNFFQNKPND
notes: whole, on cells; Endogenous receptor on cells; other subunits (gp130) not examined on these cells
Take B3: the binding result in assay [5] was “no binding”.
